Assay results as given in patent publication US20180086841A1 (Merck Sharp & Dohme, published 2018).

T1: Q15A
T1 construct: also called hCD27 Q15A
T1 receptor chain: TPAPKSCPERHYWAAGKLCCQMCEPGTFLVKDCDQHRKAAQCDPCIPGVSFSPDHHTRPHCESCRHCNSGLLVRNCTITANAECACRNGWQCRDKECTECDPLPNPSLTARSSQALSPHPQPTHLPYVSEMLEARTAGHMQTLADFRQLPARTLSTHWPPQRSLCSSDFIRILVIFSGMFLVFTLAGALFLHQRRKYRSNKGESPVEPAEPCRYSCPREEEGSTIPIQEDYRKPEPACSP

T2: R87A
T2 construct: also called hCD27 R87A
T2 receptor chain: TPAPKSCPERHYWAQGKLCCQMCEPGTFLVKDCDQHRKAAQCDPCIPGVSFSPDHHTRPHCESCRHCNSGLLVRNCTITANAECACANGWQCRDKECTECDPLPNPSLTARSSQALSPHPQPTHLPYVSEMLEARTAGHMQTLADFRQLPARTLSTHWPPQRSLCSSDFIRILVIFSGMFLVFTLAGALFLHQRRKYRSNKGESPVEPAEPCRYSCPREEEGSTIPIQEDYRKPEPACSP

T3: N88A
T3 construct: also called hCD27 N88A
T3 receptor chain: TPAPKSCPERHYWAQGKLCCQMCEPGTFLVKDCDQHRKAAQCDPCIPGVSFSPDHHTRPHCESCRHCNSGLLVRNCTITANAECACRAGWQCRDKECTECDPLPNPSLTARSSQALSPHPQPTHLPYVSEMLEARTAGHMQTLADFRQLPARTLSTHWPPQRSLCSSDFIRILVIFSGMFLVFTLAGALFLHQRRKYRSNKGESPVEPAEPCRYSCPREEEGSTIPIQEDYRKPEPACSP

T4: W90A
T4 construct: also called hCD27 W90A
T4 receptor chain: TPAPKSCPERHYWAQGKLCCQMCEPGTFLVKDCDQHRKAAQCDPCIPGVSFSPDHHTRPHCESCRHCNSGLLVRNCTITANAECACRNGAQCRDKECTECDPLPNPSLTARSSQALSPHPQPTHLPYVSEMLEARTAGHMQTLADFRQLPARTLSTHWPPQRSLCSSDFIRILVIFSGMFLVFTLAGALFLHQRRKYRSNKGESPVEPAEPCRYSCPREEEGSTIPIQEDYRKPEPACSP

T5: G89A
T5 construct: also called hCD27 G89A
T5 receptor chain: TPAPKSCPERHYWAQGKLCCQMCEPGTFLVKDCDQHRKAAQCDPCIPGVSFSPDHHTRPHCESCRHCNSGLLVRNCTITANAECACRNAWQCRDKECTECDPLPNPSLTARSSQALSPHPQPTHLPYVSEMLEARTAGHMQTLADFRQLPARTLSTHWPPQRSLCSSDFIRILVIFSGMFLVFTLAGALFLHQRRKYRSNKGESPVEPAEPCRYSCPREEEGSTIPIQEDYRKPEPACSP

T6: K31A
T6 construct: also called hCD27 K31A
T6 receptor chain: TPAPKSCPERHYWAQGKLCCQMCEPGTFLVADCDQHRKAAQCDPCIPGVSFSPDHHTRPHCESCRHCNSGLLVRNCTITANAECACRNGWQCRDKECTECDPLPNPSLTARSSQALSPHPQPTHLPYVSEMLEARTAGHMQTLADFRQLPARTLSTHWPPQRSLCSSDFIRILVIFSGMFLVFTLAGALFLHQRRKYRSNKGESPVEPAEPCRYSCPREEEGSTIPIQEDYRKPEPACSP

T7: H36A
T7 construct: also called hCD27 H36A
T7 receptor chain: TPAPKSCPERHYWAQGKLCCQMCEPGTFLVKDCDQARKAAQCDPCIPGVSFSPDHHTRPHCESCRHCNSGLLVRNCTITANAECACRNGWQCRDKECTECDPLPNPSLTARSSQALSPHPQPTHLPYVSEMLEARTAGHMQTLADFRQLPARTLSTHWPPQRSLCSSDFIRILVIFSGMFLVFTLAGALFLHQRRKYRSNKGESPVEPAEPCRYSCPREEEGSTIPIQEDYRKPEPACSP

T8: P8A
T8 construct: also called hCD27 P8A
T8 receptor chain: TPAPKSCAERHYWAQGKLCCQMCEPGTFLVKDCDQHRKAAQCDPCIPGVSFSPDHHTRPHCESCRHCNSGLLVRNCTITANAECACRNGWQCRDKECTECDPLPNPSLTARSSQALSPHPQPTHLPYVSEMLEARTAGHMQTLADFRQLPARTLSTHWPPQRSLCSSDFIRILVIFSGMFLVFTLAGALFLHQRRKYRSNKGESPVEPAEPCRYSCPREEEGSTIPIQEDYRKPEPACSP

T9: R37A
T9 construct: also called hCD27 R37A
T9 receptor chain: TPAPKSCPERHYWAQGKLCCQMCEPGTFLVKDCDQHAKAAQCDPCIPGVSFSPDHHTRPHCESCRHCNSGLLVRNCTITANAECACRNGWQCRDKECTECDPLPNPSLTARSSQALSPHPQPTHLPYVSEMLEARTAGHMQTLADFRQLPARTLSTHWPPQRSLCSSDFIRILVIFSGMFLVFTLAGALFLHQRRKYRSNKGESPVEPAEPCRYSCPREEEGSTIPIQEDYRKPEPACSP

T10: K38A
T10 construct: also called hCD27 K38A
T10 receptor chain: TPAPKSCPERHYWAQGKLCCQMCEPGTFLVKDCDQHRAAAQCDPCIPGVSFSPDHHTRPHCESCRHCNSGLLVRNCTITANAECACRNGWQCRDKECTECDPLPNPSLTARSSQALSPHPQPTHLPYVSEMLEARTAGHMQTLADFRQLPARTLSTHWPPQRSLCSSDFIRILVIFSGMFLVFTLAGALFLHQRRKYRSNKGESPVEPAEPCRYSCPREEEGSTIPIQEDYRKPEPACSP


Key:
Q15A = biological target: T1, Q15A; assay: flow cytometry on CHO-K1 transfectants;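 further: Anti-hCD27 antibodies tested on transiently transfected CHO-K1 cells bearing hCD27 alanine mutants, 30 min at 4 °C primary incubation, FITC readout excluding debris, dead cells and doublets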
Procedure: (§1) The hCD27 variants that were tested are listed. Amino acids correspond to the UniProt P26842-1 sequence. Amino acids 1-20 constitute the signal peptide. Binding is expressed as the geometric mean of the FITC signal, relative to antibody binding to hCD27, which was set at 100%.
(§2) The ability of several anti-hCD27 antibodies to bind to a series of hCD27 alanine mutants was determined using CHO-K1 cells, transiently transfected pCI-neo empty vector, pCI-neo.hCD27 and several pCI-neo.CD27Ala mutant constructs.
(§3) Detached cells were transferred to 96 wells round-bottomed well plates at approximately 1.2×10⁵ cells/well. After spinning down the cells, discarding the supernatants and re-suspending the cells in the residual volume, the primary antibodies were added and incubated for 30 minutes at 4° C. Cells were washed three times with DPBS/BSA 1%, followed by centrifugation, discarding of the supernatants and re-suspension in the residual volume. […] After washing once, antibody binding was detected using the HTS plate reader (FACS Canto II) and FlowJo software for data analysis. Debris, dead cells and doublets were excluded from the analysis. Binding was expressed as the geometric mean of the FITC signal, relative to antibody binding to hCD27, which was set at 100%.

R87A = biological target: T2, R87A; assay: flow cytometry on CHO-K1 transfectants;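 further: Anti-hCD27 antibodies tested on transiently transfected CHO-K1 cells bearing hCD27 alanine mutants, 30 min at 4 °C primary incubation, FITC readout excluding debris, dead cells and doublets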
Procedure: as §1, §2, §3

N88A = biological target: T3, N88A; assay: flow cytometry on CHO-K1 transfectants;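 further: Anti-hCD27 antibodies tested on transiently transfected CHO-K1 cells bearing hCD27 alanine mutants, 30 min at 4 °C primary incubation, FITC readout excluding debris, dead cells and doublets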
Procedure: as §1, §2, §3

W90A [1] = biological target: T4, W90A; assay: flow cytometry on CHO-K1 transfectants;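 further: Anti-hCD27 antibodies tested on transiently transfected CHO-K1 cells bearing hCD27 alanine mutants, 30 min at 4 °C primary incubation, FITC readout excluding debris, dead cells and doublets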
Procedure: as §1, §2, §3

G89A = biological target: T5, G89A; assay: flow cytometry on CHO-K1 transfectants, right sub-column
Procedure: as §1, §2, §3

K31A = biological target: T6, K31A; assay: as above
Procedure: as §1, §2, §3

W90A [2] = biological target: T4, W90A; assay: as above
Procedure: as §1, §2, §3

H36A = biological target: T7, H36A; assay: flow cytometry on CHO-K1 transfectants, right sub-column, cell hatched (loss of binding)
Procedure: as §1, §2, §3

P8A = biological target: T8, P8A; assay: as above
Procedure: as §1, §2, §3

R37A = biological target: T9, R37A; assay: as above
Procedure: as §1, §2, §3

K38A = biological target: T10, K38A; assay: as above
Procedure: as §1, §2, §3

| binding, WT hCD27 = 100 (GM FITC) (Q15A) [%] | binding, WT hCD27 = 100 (GM FITC) (R87A) [%] | binding, WT hCD27 = 100 (GM FITC) (N88A) [%] | binding, WT hCD27 = 100 (GM FITC) (W90A [1]) [%] | binding, WT hCD27 = 100 (GM FITC) (G89A) [%] | binding, WT hCD27 = 100 (GM FITC) (K31A) [%] | binding, WT hCD27 = 100 (GM FITC) (W90A [2]) [%] | binding, WT hCD27 = 100 (GM FITC) (H36A) [%] | binding, WT hCD27 = 100 (GM FITC) (P8A) [%] | binding, WT hCD27 = 100 (GM FITC) (R37A) [%] | binding, WT hCD27 = 100 (GM FITC) (K38A) [%] | Binder |
| --- | --- | --- | --- | --- | --- | --- | --- | --- | --- | --- | --- |
| 98.6 | 114 | 132 | 93.8 | – | – | – | – | – | – | – | hCD27.15-6B (antibody, human IgG4 S228P, kappa, V domains shown, also called hCD27.15 (humanized 6B); humanized hCD27.15 (human IgG4, Clone 6B)) VH: QVQLVQSGAEVKKPGASVKVSCKASGFIIKATYMHWVRQAPGQRLEWMGRIDPANGETKYDPKFQVRVTITADTSASTAYMELSSLRSEDTAVYYCARYAWYFDVWGQGTLVTVSS VL: DIQMTQSPSSLSASVGDRVTITCRASENIYSFLAWYQQKPGKAPKLLIYHAKTLAEGVTSRFSGSGSGTDFTLTISSLQPEDSATYYCQHYYGSPLTFGQGTRLEIKR |
| – | – | – | – | 82.9 | 134 | 102 | 10.8 | 15.9 | 9.6 | 11.8 | hCD27.131A (mouse parental 131A) (antibody, mouse IgG1, V domains shown, Mouse IgG1 antibody; also called mouse hCD27.131A) VH: QIQLVQSGPELKKPGETVKISCKASGYTFTNYGMNWVKQAPGKGLKWMGWINTNTGEPTYAEEFKGRFAFSLETSATTAYLQINNLKNEDTATYFCAREGDAMDYWGQGTSVTVSS VL: QIVLTQSPAIMSASPGEKVTMTCSASSSVSYMHWYQQKSGTSPKRWIYDTSKLASGVPARFSGSGSGTSYSLTISSMEAEDAATYYCQQWNSYPFTFGSGTKLEIK |
